In patent US20110110959A1 (BIOSCEPTRE AUST, published 2011):

T1: composite peptide GHNYTTRNILPGAGAKYYKENNVEK (BSA carrier protein attached for coating of ELISA plates)
T1 construct: also called EP200/300; 200/300-peptide
T1 peptide: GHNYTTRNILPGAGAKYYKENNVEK

T2: 200 (a peptide having the sequence of the E200 region)
T2 construct: also called E200 peptide
T2 peptide: GHNYTTRNILPGLNITC

T3: 300 (a peptide having the sequence of the E300 region)
T3 construct: also called E300 peptide
T3 peptide: KYYKENNVEKRTLIKVF


What was measured:
HLA (human) [1] = experiment: FACS, human lymphocytes
HLA (human) [2] = experiment: FACS, MCF-7 breast tumour cell line
U140 [3] = experiment: ELISA, coated antigen, supernatant, duplicate 1
U80 [4] = experiment: ELISA, coated antigen, supernatant, duplicate 1
U140 [5] = experiment: ELISA, coated antigen, supernatant, duplicate 2
U80 [6] = experiment: ELISA, coated antigen, supernatant, duplicate 2
[7] = target: T1, composite peptide …; experiment: ELISA, coated antigen, supernatant, duplicate 1
[8] = target: T2, 200 (a peptide having the sequence of …); experiment: ELISA, coated antigen, supernatant, duplicate 1
[9] = target: T3, 300 (a peptide having the sequence of …); experiment: ELISA, coated antigen, supernatant, duplicate 1
[10] = target: T1, composite peptide …; experiment: ELISA, coated antigen, supernatant, duplicate 2
[11] = target: T2, 200 (a peptide having the sequence of …); experiment: ELISA, coated antigen, supernatant, duplicate 2
[12] = target: T3, 300 (a peptide having the sequence of …); experiment: ELISA, coated antigen, supernatant, duplicate 2

Mean Fluorescence Intensity (MFI) (HLA (human) [1])	Percent Cells Positive (HLA (human) [1])	Mean Fluorescence Intensity (MFI) (HLA (human) [2])	Percent Cells Positive (HLA (human) [2])	ELISA absorbance (405 nm, reference 490 nm) (U140 [3])	ELISA absorbance (405 nm, reference 490 nm) (U80 [4])	ELISA absorbance (405 nm, reference 490 nm) (U140 [5])	ELISA absorbance (405 nm, reference 490 nm) (U80 [6])	ELISA absorbance (405 nm, reference 490 nm) [7]	ELISA absorbance (405 nm, reference 490 nm) [8]	ELISA absorbance (405 nm, reference 490 nm) [9]	ELISA absorbance (405 nm, reference 490 nm) [10]	ELISA absorbance (405 nm, reference 490 nm) [11]	ELISA absorbance (405 nm, reference 490 nm) [12]	Molecule
3900 MFI	100%	1670 MFI	87%											HLA (W6/32) Positive Control (antibody)
				0.17 OD	0.181 OD	0.508 OD	0.154 OD	3.62 OD	0.138 OD	0.144 OD	3.6 OD	0.194 OD	0.186 OD	2A11 (antibody, V domains shown) VH: QVQLQESGGGSVQAGGSLRLSCTASGFTLDDSDLGWYRQAPGNECELVSIIRRDGSPYHTYYPDSVKGRFTISQDNAKNTLYLQMNSLKPEDTAVYYCAADPSRYYSDYGAPGCGFNYWGQGTQVTVSS
